One block for each binder: values may come before it.
Assays:
[1] = target: T1, human FcγRIIb extracellular domain, His-tagged (human, UniProt P31994 43-217); experiment: SPR (BIACORE), antibody captured on chip, soluble FcgR as analyte, 25 C
T1 construct: also called human FcgRIIb; not shown: His-tag added to the C-terminus
T1 sequence: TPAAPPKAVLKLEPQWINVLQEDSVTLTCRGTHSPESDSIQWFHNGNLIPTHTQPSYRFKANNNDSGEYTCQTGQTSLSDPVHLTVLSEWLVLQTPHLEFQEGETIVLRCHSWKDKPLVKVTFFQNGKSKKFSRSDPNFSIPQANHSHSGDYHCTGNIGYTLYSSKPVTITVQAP
Description: (§1) The kinetic analysis of interactions between these antibodies and FcγR was carried out using BIACORE® T200 or BIACORE® 4000 (GE Healthcare). HBS-EP+ (GE Healthcare) was used as the running buffer, and the measurement temperature was set to 25° C. […] After the measurement, the antibody captured on the chip was washed off by allowing reaction with 10 mM glycine-HCl, pH1.5 and 25 mM NaOH so that the chip was regenerated and used repeatedly. The sensorgrams obtained as measurement results were analyzed by the 1:1 Langmuir binding model using the BIACORE® Evaluation Software to calculate the binding rate constant ka (L/mol/s) and dissociation rate constant kd (1/s), and the dissociation constant KD (mol/L) was calculated from these values. […] Regarding such interactions, KD values were calculated using the following 1:1 binding model described in BIACORE® T100 Software Handbook BR1006-48 Edition AE.

[2] = target: T2, cynomolgus monkey FcγRIIIaS extracellular domain, His-tagged (cynomolgus monkey, UniProt A3RFZ7 21-206 (rhesus entry)); experiment: as above
T2 construct: also called cyno FcgRIIIaS; cynoFcγRIIIaS; not shown: His-tag added to the C-terminus
T2 sequence (A3RFZ7 21-206): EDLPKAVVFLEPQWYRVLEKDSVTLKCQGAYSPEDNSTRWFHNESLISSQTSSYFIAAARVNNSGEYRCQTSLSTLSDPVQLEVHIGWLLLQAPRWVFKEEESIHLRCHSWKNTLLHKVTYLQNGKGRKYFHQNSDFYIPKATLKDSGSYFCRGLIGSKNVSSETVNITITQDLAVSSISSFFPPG
Description: as §1

[3] = target: T3, cynomolgus monkey FcγRIIa3 extracellular domain, His-tagged (cynomolgus monkey); experiment: as above
T3 construct: also called cyno FcgRIIa3; cynoFcγRIIa3; not shown: His-tag added to the C-terminus
T3 chain: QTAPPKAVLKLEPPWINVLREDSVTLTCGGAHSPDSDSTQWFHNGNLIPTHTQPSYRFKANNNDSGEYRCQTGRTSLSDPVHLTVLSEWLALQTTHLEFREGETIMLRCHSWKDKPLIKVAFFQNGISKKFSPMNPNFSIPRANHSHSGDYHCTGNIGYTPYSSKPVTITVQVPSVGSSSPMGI
Description: as §1

[4] = target: T4, cynomolgus monkey FcγRIIa2 extracellular domain with C-terminal His-tag (cynomolgus monkey); experiment: SPR (Biacore), antibody captured, FcgR analyte
T4 construct: also called cyno FcgRIIa2; cynoFcγRIIa2
T4 chain: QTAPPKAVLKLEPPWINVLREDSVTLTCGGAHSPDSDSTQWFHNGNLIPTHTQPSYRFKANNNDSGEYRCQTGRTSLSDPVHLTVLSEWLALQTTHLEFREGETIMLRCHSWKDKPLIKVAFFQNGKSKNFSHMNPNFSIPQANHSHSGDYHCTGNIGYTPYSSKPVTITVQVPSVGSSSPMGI

[5] = target: T5, human FcγRIIaH extracellular domain with C-terminal His-tag (human, UniProt P12318 34-217); experiment: SPR (Biacore), KD of SG1 / KD of variant
T5 construct: also called human FcgRIIaH; FcγRIIa (type H)
T5 sequence: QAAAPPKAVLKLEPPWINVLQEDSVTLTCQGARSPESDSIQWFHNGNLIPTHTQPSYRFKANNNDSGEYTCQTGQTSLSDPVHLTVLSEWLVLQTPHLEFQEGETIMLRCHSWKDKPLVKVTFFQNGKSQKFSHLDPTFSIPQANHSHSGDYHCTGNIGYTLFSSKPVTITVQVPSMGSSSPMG

[6] = target: T6, human FcγRIIIaV extracellular domain with C-terminal His-tag (human, UniProt P08637 17-208); experiment: SPR (Biacore), KD of SG1 / KD of variant
T6 construct: also called human FcgRIIIaV
T6 sequence (P08637 17-208 F176V): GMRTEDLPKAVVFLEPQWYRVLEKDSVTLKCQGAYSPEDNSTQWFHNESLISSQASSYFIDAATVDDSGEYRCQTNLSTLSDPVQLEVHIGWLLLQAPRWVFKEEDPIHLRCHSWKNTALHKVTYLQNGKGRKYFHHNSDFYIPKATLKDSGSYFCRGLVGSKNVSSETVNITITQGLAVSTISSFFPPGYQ

[7] = target: T7, cynomolgus monkey FcγRIIb extracellular domain with C-terminal His-tag (cynomolgus monkey); experiment: SPR (Biacore), KD of SG1 / KD of variant
T7 construct: also called cyno FcgRIIb; cynoFcγRIIb
T7 chain: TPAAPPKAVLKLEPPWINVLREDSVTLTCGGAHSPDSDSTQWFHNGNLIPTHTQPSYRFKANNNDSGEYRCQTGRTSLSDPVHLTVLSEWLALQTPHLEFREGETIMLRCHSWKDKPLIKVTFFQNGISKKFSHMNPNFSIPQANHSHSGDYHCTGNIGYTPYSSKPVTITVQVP

[8] = target: T4, cynomolgus monkey FcγRIIa2 …; experiment: SPR (Biacore), KD of SG1 / KD of variant
[9] = target: T8, cynomolgus monkey FcγRIIa3 extracellular domain with C-terminal His-tag (cynomolgus monkey); experiment: SPR (Biacore), antibody captured, FcgR analyte
T8 construct: also called cyno FcgRIIa3; cynoFcγRIIa3
T8 chain: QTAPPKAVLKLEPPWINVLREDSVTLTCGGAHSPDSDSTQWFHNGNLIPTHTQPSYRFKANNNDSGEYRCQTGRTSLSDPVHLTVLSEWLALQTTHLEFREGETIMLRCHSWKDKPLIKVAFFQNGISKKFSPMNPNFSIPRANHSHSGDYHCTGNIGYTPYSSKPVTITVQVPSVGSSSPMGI

[10] = target: T9, cynomolgus monkey FcγRIIa1 extracellular domain with C-terminal His-tag (cynomolgus monkey); experiment: SPR (Biacore), antibody captured, FcgR analyte
T9 construct: also called cyno FcgRIIa1; cynoFcγRIIa1
T9 chain: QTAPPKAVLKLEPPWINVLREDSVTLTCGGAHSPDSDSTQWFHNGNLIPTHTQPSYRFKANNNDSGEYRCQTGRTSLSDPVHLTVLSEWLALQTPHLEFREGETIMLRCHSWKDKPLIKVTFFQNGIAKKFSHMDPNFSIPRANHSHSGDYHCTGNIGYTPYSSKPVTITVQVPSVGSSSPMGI

[11] = target: T5, human FcγRIIaH extracellular domain …; experiment: SPR (Biacore), antibody captured, FcgR analyte
[12] = target: T10, human FcγRIIaR extracellular domain with C-terminal His-tag (human, UniProt P12318 34-217); experiment: SPR (Biacore), antibody captured, FcgR analyte
T10 construct: also called human FcgRIIaR; FcγRIIa (type R)
T10 chain: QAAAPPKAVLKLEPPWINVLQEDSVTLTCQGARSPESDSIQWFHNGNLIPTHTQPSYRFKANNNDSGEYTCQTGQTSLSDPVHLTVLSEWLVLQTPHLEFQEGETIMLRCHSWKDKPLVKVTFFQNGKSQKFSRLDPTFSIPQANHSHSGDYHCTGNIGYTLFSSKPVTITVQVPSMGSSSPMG

[13] = target: T6, human FcγRIIIaV extracellular domain …; experiment: SPR (Biacore), antibody captured, FcgR analyte

Kd [1]: 53 nM
Kd [2]: 2400 nM
Kd [3]: 55000 nM
B1: M103205H795-MY261/M103202L889-SK1 (antibody, human IgG1, kappa, name in EU numbering)
heavy: QVTLKESGPVLVKPTETLTLTCTVSGIDLSHDDISWVRQAPGKGLEWVGIISYAGSTYYASWAKGRLTISKDTSKNQVVLTMTNMDPVDTATYYCARGVPAYSHGGDLWGQGTLVTVSSASTKGPSVFPLAPSSKSTSGGTAALGCLVKDYFPEPVTVSWNSGALTSGVHTFPAVLQSSGLYSLSSVVTVPSSSLGTQTYICNVNHKPSNTKVDKKVEPKSCDKTHTCPPCPAPELLHGPSVFLFPPKPKDTLMISRTPEVTCVVVDVSDEDPEVKFNWYVDGVEVHNAKTKPREEQYNSTYRVVSVLTVLHQDWLNGKEYKCKVSNKALPKPIEKTISKAKGQPREPQVYTLPPSREEMTKNQVSLTCLVKGFYPSDIAVEWESNGQPENNYKTTPPVLDSDGSFFLYSKLTVDKSRWQQGNVFSCSVMHEALHNHYTQKSLSLSP
light: DIVMTQSPATLSLSPGERATLSCTSSQSVYHANWLSWFQQKPGQPPKLLIYWASTLAYGVPSRFSGSGSGTDFTLTISSLQPEDAATYYCAGGYGGGRYAFGQGTKVEIKRTVAAPSVFIFPPSDEQLKSGTASVVCLLNNFYPREAKVQWKVDNALQSGNSQESVTEQDSKDSTYSLSSTLTLSKADYEKHKVYACEVTHQGLSSPVTKSFNRGEC
notes: Asn at EU 236 of MY201 replaced with His

Kd [4]: 2900 nM
B2: M103205H795-MY455/M103202L889-SK1 (antibody, human IgG1, kappa)
heavy: QVTLKESGPVLVKPTETLTLTCTVSGIDLSHDDISWVRQAPGKGLEWVGIISYAGSTYYASWAKGRLTISKDTSKNQVVLTMTNMDPVDTATYYCARGVPAYSHGGDLWGQGTLVTVSSASTKGPSVFPLAPSSKSTSGGTAALGCLVKDYFPEPVTVSWNSGALTSGVHTFPAVLQSSGLYSLSSVVTVPSSSLGTQTYICNVNHKPSNTKVDKKVEPKSCDKTHTCPPCPATELLTGPSVFLFPPKPKDTLMISRTPEVTCVVVDVSDEDPEVKFNWYVDGVEVHNAKTKPREEQYNSTYRVVSVLTVLHQDWLNGKEYKCKVSNKALPKPIEKTISKAKGQPREPQVYTLPPSREEMTKNQVSLTCLVKGFYPSDIAVEWESNGQPENNYKTTPPVLDSDGSFFLYSKLTVDKSRWQQGNVFSCSVMHEALHNHYTQKSLSLSP
light: DIVMTQSPATLSLSPGERATLSCTSSQSVYHANWLSWFQQKPGQPPKLLIYWASTLAYGVPSRFSGSGSGTDFTLTISSLQPEDAATYYCAGGYGGGRYAFGQGTKVEIKRTVAAPSVFIFPPSDEQLKSGTASVVCLLNNFYPREAKVQWKVDNALQSGNSQESVTEQDSKDSTYSLSSTLTLSKADYEKHKVYACEVTHQGLSSPVTKSFNRGEC
notes: Substitutions in EU numbering on SG1

KD fold (SG1 = 1) [5]: 3.6 fold
KD fold (SG1 = 1) [6]: 0.2 fold
KD fold (SG1 = 1) [7]: 3.6 fold
KD fold (SG1 = 1) [8]: 2.8 fold
Kd [9]: 3500 nM
Kd [10]: 1800 nM
Kd [11]: 180 nM
B3: M103205H795-MY461/M103202L889-SK1 (antibody)
heavy: QVTLKESGPVLVKPTETLTLTCTVSGIDLSHDDISWVRQAPGKGLEWVGIISYAGSTYYASWAKGRLTISKDTSKNQVVLTMTNMDPVDTATYYCARGVPAYSHGGDLWGQGTLVTVSSASTKGPSVFPLAPSSKSTSGGTAALGCLVKDYFPEPVTVSWNSGALTSGVHTFPAVLQSSGLYSLSSVVTVPSSSLGTQTYICNVNHKPSNTKVDKKVEPKSCDKTHTCPPCPFPELLTGPSVFLFPPKPKDTLMISRTPEVTCVVVDVSDEDPEVKFNWYVDGVEVHNAKTKPREEQYNSTYRVVSVLTVLHQDWLNGKEYKCKVSNKALPKPIEKTISKAKGQPREPQVYTLPPSREEMTKNQVSLTCLVKGFYPSDIAVEWESNGQPENNYKTTPPVLDSDGSFFLYSKLTVDKSRWQQGNVFSCSVMHEALHNHYTQKSLSLSP
light: DIVMTQSPATLSLSPGERATLSCTSSQSVYHANWLSWFQQKPGQPPKLLIYWASTLAYGVPSRFSGSGSGTDFTLTISSLQPEDAATYYCAGGYGGGRYAFGQGTKVEIKRTVAAPSVFIFPPSDEQLKSGTASVVCLLNNFYPREAKVQWKVDNALQSGNSQESVTEQDSKDSTYSLSSTLTLSKADYEKHKVYACEVTHQGLSSPVTKSFNRGEC
notes: as for B2

Kd [12]: 16 nM
Kd [10]: 6200 nM
Kd [13]: 1400 nM
B4: M103205H795-MY453/M103202L889-SK1 (antibody, human IgG1, kappa)
heavy: QVTLKESGPVLVKPTETLTLTCTVSGIDLSHDDISWVRQAPGKGLEWVGIISYAGSTYYASWAKGRLTISKDTSKNQVVLTMTNMDPVDTATYYCARGVPAYSHGGDLWGQGTLVTVSSASTKGPSVFPLAPSSKSTSGGTAALGCLVKDYFPEPVTVSWNSGALTSGVHTFPAVLQSSGLYSLSSVVTVPSSSLGTQTYICNVNHKPSNTKVDKKVEPKSCDKTHTCPPCPARELLTGPSVFLFPPKPKDTLMISRTPEVTCVVVDVSDEDPEVKFNWYVDGVEVHNAKTKPREEQYNSTYRVVSVLTVLHQDWLNGKEYKCKVSNKALPKPIEKTISKAKGQPREPQVYTLPPSREEMTKNQVSLTCLVKGFYPSDIAVEWESNGQPENNYKTTPPVLDSDGSFFLYSKLTVDKSRWQQGNVFSCSVMHEALHNHYTQKSLSLSP
light: DIVMTQSPATLSLSPGERATLSCTSSQSVYHANWLSWFQQKPGQPPKLLIYWASTLAYGVPSRFSGSGSGTDFTLTISSLQPEDAATYYCAGGYGGGRYAFGQGTKVEIKRTVAAPSVFIFPPSDEQLKSGTASVVCLLNNFYPREAKVQWKVDNALQSGNSQESVTEQDSKDSTYSLSSTLTLSKADYEKHKVYACEVTHQGLSSPVTKSFNRGEC
notes: as for B2
